In patent publication US20250277029A1 (Amgen, published 2025):
Positions count from the first letter of the chain named. Names may count otherwise.

B1: LIBC529593-1 (Fab) (Fab, V domains shown)
VH: QVQLQESGPGLVKPSQTLSLTCTVSGGSIRRGGDYWSWIRQHPGKGLEWIGHIYYSGSTNYNPSLRSRVRISVDTSKNQFSLKLSSVTAADTAVYYCARDYDILTGYSYYYYGLDVWGQGTTVTVSS
VL: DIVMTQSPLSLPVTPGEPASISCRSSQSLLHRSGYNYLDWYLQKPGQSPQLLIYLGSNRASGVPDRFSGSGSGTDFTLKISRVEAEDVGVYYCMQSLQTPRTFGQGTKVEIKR
B2: LIBC673952-1 (Fab on yeast) (Fab, V domains shown)
VH: B1 VH with I53V, S56T, S58Q, N60T, L65F, S67G, R70T, D74N, S76Y
VL: DIVMTQSPLSLPVTPGEPASISCRSSQSLLHRSGYNYLDWYLQKPGQSPQLLIYQGSNRASGVPDRFSGSGSGTDFTLKISRVEAEDVGVYYCRQARALPRTFGQGTKVEIKR
notes: Clone of the Fab-yeast libraries
B3: LIBC674153-1 (Fab on yeast) (Fab, V domains shown)
VH: QVQLQESGPGLVKPSQTLSLTCTVSGGSIRRGGDYWSWIRQHPGKGLEWIGHVYYTGSTAYNPSFRGRVRISVNTYKNQFSLKLSSVTAADTAVYYCARGYDTSGYSYYYYGLDVWGQGTTVTVSS
VL: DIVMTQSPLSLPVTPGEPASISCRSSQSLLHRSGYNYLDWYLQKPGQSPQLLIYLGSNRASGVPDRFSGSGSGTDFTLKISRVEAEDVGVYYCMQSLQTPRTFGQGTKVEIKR
notes: as for B2
B4: LIBC674090-1 (Fab on yeast) (Fab, V domains shown)
VH: B3 VH with V53I, T56A, S64N
VL: B2 VL with R94M, A96S, R97L, A98Q, L99T
notes: as for B2
B5: LIBC674200-1 (Fab on yeast) (Fab, V domains shown)
VH: B3 VH with S58Q, S64N, G67N, T103V, L113M
VL: B2 VL with Q55L, D65G, R94M, A96S, R97L, A98Q, L99T
notes: Original clone of the Fab-yeast libraries, without the LC G76D reversion
B6: LIBC673972-1 (Fab on yeast) (Fab, V domains shown)
VH: B3 VH with V53I, S58Q, S64N, F65L, G67N, T103A
VL: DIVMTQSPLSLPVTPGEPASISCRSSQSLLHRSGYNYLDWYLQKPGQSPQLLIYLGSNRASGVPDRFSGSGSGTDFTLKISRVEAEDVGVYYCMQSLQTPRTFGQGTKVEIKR
notes: as for B2
B7: LIBC674257-1 (Fab on yeast) (Fab, V domains shown)
VH: B3 VH with V53I, S58Q, A60K, F65L, T103I
VL: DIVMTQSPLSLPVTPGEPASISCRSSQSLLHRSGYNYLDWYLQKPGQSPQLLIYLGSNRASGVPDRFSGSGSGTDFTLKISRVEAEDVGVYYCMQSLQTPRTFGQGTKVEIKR
notes: as for B2
B8: LIBC673948-1 (Fab on yeast) (Fab, V domains shown)
VH: B3 VH with V53I, A60K, F65L, R66K, G67N, T103V
VL: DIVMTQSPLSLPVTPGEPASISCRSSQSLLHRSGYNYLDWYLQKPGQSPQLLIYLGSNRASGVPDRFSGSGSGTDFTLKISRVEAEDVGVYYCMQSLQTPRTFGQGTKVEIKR
notes: as for B2
B9: LIBC674043-1 (Fab on yeast) (Fab, V domains shown)
VH: B3 VH with V53I, S58Q, A60T, S64N, R66K, T103A, L113M, S126R
VL: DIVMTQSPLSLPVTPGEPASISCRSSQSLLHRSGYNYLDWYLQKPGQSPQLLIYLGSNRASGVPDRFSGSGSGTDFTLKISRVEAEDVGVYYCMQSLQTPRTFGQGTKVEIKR
notes: Original clone of the Fab-yeast libraries, without the R149S reversion
B10: LIBC674002-1 (Fab on yeast) (Fab, V domains shown)
VH: B3 VH with V53I, T56K, A60E, F65L, T103V
VL: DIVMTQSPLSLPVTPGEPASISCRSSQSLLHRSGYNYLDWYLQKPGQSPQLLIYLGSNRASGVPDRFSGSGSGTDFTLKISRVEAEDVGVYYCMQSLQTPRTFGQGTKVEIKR
notes: as for B2
B11: LIBC674035-1 (Fab on yeast) (Fab, V domains shown)
VH: B3 VH with V53I, T56A, S58Q, A60K, R66K, G67N, T103I
VL: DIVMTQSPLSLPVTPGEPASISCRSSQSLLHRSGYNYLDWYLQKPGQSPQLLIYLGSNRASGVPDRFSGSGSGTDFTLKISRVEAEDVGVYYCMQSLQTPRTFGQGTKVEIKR
notes: as for B2
B12: LIBC674229-1 (Fab on yeast) (Fab, V domains shown)
VH: B3 VH with V53I, Y55Q, S58Q, A60K, R66K, T103V, L113M
VL: B2 VL with R94M, A96S, R97L, A98Q, L99T
notes: as for B2
B13: LIBC674276-1 (Fab on yeast) (Fab, V domains shown)
VH: B3 VH with A60T, S64N, R66K, T103A
VL: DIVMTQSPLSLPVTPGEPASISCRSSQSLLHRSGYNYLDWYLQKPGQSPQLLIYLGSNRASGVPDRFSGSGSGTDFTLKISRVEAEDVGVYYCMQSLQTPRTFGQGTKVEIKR
notes: as for B2
B14: LIBC674214-1 (Fab on yeast) (Fab, V domains shown)
VH: B3 VH with T56E, A60K, T103V
VL: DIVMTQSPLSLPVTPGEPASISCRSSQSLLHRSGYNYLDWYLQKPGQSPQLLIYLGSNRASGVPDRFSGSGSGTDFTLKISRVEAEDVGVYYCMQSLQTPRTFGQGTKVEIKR
notes: as for B2
B15: LIBC674024-1 (Fab on yeast) (Fab, V domains shown)
VH: B3 VH with Y55Q, A60K, R66K, G67N, T103V
VL: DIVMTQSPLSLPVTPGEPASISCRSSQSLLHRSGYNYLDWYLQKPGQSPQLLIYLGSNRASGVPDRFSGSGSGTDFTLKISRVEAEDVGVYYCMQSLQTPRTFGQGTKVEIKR
notes: as for B2
B16: LIBC674235-1 (Fab on yeast) (Fab, V domains shown)
VH: B3 VH with T56A, A60T, F65L, R66K, G67S, T103V
VL: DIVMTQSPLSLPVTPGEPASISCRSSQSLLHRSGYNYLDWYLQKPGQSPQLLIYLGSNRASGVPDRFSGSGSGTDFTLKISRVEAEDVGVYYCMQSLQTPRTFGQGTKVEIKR
notes: as for B2
B17: LIBC673982-1 (Fab on yeast) (Fab, V domains shown)
VH: B3 VH with V53I, A60T, G100D, T103I, L113M
VL: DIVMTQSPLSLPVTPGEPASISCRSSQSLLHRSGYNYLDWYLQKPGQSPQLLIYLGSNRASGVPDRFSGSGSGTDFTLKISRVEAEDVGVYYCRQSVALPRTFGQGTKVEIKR
notes: as for B2
B18: LIBC673965-1 (Fab on yeast) (Fab, V domains shown)
VH: B3 VH with S58Q, F65L
VL: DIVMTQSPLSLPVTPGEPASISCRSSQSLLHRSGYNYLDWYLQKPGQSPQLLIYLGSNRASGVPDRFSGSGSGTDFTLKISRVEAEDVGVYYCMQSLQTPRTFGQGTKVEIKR
notes: as for B2
B19: LIBC674216-1 (Fab on yeast) (Fab, V domains shown)
VH: B3 VH with V53I, S58Q, F65L, G67N, T103I
VL: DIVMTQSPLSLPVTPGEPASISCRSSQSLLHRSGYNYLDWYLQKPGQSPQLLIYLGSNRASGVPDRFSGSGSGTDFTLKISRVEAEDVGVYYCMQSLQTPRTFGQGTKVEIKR
notes: as for B2
B20: LIBC673952-1 (IgG1 SEFL2 mAb) (antibody, V domains shown)
VH: B1 VH with I53V, S56T, S58Q, N60T, L65F, S67G, R70T, D74N, S76Y
VL: B2 VL
B21: LIBC680574-1 (IgG1 SEFL2 mAb) (antibody, V domains shown)
VH: QVQLQESGPGLVKPSQTLSLTCTVSGGSIRRGGDYWAWIRQHPGKGLEWIGHVYYTGSTKYNPSFKDRATISVNTYKNQFSLKLSSVTAADTAVYYCARNYDTLTGYSYYYYGMDVWGQGTTVTVSS
VL: DIQMTQSPSSLSASVGDRVTITCRASQSISSYLNWYQQKPGKAPKLLIYGARRLGSGVPSRFSGSGSGTDFTLTISSLQPEDFATYYCQQYSSLPVTFGGGTKVEIKR
B22: LIBC680562-1 (IgG1 SEFL2 mAb) (antibody, V domains shown)
VH: B21 VH with V53I, Y55Q, K60N, S64R, D67G
VL: B21 VL with G50S, G55S, S92A, S93K, L94S, V96I
B23: LIBC680773-1 (IgG1 SEFL2 mAb) (antibody, V domains shown)
VH: B21 VH with K60N, S64R, L104V
VL: B21 VL with G50K, R53L, G55S, S93R, V96L
B24: LIBC673965-1 (IgG1 SEFL2 mAb) (antibody, V domains shown)
VH: B3 VH with S58Q, F65L
VL: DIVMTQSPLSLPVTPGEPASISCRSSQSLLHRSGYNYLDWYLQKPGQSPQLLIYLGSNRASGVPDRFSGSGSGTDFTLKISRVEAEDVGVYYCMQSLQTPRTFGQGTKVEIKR
B25: LIBC673972-1 (IgG1 SEFL2 mAb) (antibody, V domains shown)
VH: B3 VH with V53I, S58Q, S64N, F65L, G67N, T103A
VL: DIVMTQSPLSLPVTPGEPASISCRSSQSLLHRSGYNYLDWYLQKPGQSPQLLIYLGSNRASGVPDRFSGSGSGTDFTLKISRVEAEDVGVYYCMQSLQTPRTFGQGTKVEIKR

target: T1, GFP-fused huCB1-SMALP (human, UniProt P21554 1-472); experiment: flow cytometry, yeast-displayed Fab, 5 nM CB1 SMALP
T1 construct: Human CB1 fused to GFP in styrene maleic acid lipoparticles, made as in Luna et al. 2018; also called huCB1-GFP-SMALP; GFP-tagged huCB1-SMALP; not shown: GFP fused to huCB1
T1 sequence (P21554 whole entry, the tested form may be a part): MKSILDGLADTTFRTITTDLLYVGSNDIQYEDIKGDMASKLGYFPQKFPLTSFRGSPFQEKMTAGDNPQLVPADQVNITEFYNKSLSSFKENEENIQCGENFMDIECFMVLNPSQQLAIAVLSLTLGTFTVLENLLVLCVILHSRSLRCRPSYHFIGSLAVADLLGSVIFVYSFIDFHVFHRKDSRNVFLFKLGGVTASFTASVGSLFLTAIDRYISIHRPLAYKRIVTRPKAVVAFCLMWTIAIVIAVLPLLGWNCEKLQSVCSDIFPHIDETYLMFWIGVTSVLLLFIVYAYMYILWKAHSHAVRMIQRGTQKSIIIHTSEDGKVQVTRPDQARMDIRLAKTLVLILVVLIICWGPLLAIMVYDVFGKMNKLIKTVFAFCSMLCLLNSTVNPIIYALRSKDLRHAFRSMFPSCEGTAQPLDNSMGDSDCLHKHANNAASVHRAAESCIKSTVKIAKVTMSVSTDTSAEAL

Binder	relative binding fold change compared to LIBC523797-1(Fab) [fold]
B1	1.42
B2	1.23
B3	1.35
B4	1.2
B5	1.33
B6	1.46
B7	1.19
B8	1.37
B9	1.2
B10	1.49
B11	1.29
B12	1.11
B13	1.17
B14	1.17
B15	1.24
B16	1.3
B17	1.24
B18	1.3
B19	1.1

target: human CB1 on stably transfected CB1 CHO cells (human, UniProt P21554 1-472); experiment: cell-based or functional assay
Sequence (P21554 whole entry): as the sequence (P21554 whole entry, the tested form may be a part) above

Binder	IC50 (nM, n = 4), antagonist activity, TR-FRET cAMP assay [nM]
B20	2.48
B21	0.75
B22	0.71
B23	0.74
B24	2.21
B25	2.43

target: T1, GFP-fused huCB1-SMALP; experiment: flow cytometry, yeast-displayed Fab, 10 nM CB1 SMALP

Binder	relative binding fold change compared to LIBC523797-1(Fab) [fold]
B1	1.06
B2	1.91
B3	2.62
B4	2.85
B5	3.31
B6	2.46
B7	3.34
B8	2.46
B9	3.23
B10	2.59
B11	2.74
B12	3.17
B13	2.06
B14	2.1
B15	2.39
B16	2.05
B17	2.16
B18	2.5
B19	1.96

target: T2, Empty ND; experiment: flow cytometry, yeast-displayed Fab, 50 nM Empty ND
T2 construct: It carries no receptor; the scaffold is its only protein; also called empty nanodisc

Binder	relative binding fold change compared to LIBC523797-1(Fab) [fold]
B1	1.14
B2	0.62
B3	0.33
B4	0.99
B5	0.74
B6	0.4
B7	0.73
B8	0.48
B9	0.75
B10	0.03
B11	0.56
B12	0.75
B13	0.51
B14	1.09
B15	0.55
B16	0.72
B17	0.6
B18	0.43
B19	0.65

target: T3, His-tagged huCB1-ND (human, UniProt P21554 99-414, limits assumed); experiment: flow cytometry, yeast-displayed Fab, 0.5 nM CB1 ND
T3 construct: The real construct may be truncated or engineered; also called CB1-nanodisc; not shown: histidine purification tag
T3 sequence (P21554 99-414 limits assumed): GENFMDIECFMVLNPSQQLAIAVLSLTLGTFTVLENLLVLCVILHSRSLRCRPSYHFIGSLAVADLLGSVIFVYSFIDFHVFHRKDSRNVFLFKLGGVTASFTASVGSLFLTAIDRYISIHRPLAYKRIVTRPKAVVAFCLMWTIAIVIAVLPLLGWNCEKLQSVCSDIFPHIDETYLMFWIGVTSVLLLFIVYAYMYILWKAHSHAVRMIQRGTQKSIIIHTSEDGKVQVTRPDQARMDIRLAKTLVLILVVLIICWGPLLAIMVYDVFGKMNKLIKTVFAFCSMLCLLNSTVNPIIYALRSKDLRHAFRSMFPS

Binder	relative binding fold change compared to LIBC523797-1(Fab) [fold]
B1	0.38
B2	0.77
B3	1.83
B4	1.35
B5	2.08
B6	0.63
B7	1.86
B8	0.64
B9	1.85
B10	0.46
B11	0.52
B12	2.22
B13	2.04
B14	1.76
B15	0.49
B16	1.28
B17	0.78
B18	0.65
B19	1.66
